One block for each binder: values may come before it.
Assays:
[1] = target: T1, human BDCA2 (human, UniProt Q8WTT0 1-213); assay: FACS on CHOK1-hBDCA2 cells; EC50 table under the plot, unit from the x axis (nM) [continued) c.]
T1 construct: whole, on cells; also called hBDCA2; Blood dendritic cell antigen 2
T1 sequence (looked up): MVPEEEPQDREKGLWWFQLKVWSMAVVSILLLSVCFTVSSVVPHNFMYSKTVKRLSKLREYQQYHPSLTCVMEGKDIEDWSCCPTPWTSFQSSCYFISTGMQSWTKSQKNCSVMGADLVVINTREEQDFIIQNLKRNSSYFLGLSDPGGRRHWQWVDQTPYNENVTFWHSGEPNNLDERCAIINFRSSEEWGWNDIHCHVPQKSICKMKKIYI
Experimental: (§1) The cells were recovered and resuspended to 2×10⁶/mL with FACS buffer (PBS+2% FBS). The cells were added to 3799 cell plates (Corning) at 100 μL/well, and the supernatant was discarded after centrifugation at 300 g. The antibodies were serially diluted with FACS buffer (Id.), the diluted antibodies were added to centrifuged cells and the cells were resuspended. The cells were incubated at 4° C. for 1 h. The incubated cells were then centrifuged at […] for 5 min and washed twice with FACS buffer. 100 μL Donkey anti-Mouse IgG (H+L) Highly Cross-Adsorbed Secondary Antibody-Alexa Fluor 488 (Invitrogen, A21202; 1:1000) secondary antibody was added to the cells, which were washed twice with FACS buffer after incubation at 4° C. for 1 h, resuspended with PBS, analyzed with FACS (BD FACS CantoTM II) instrument. The curve was fitted with GraphPad Prism6, and EC₅₀ values were calculated.

[2] = target: T1, human BDCA2; assay: FACS, CHOK1-humanBDCA2 cells
Experimental: (§2) The cells were recovered and resuspended to 2×10⁶/mL with FACS buffer (PBS+2% FBS). The resuspended cells were added to 3799 cell plates at 100 μL/well, and the supernatant was discarded after centrifugation at 300 g. […] The cells were incubated at 4° C. for 1 h. The incubated cells were centrifuged at […] for 5 min and washed twice with FACS buffer. 100 μL Goat anti-Human IgG (H+L) Cross-Adsorbed Secondary Antibody, Alexa Fluor 488 (Sigma, A11013; 1:1000) secondary antibody was added, washed twice with FACS buffer after incubation at 4° C. for 1 h. The cells were resuspended with PBS, then the fluorescence signal of antibodies bound to cell surface was analyzed with FACS (BD FACS CantoTM II) instrument and curves were fitted with GraphPad Prism6 to calculate EC₅₀ values for antibodies binding to BDCA2 antigen.

[3] = target: T1, human BDCA2; assay: cell-based or functional assay
[4] = target: T1, human BDCA2; assay: FACS on CHOK1-hBDCA2 cells; EC50 table under the plot, unit from the x axis (nM) [continued) d.]
Experimental: as §1

[5] = target: T1, human BDCA2; assay: FACS on CHOK1-hBDCA2 cells; EC50 table beside the plot, unit from the x axis (nM) [continued) c.]
Experimental: (§3) The cells were recovered and resuspended to 2×10⁶/mL with FACS buffer (PBS+2% FBS). The cells were added to 3799 cell plates (Corning) at 100 μL/well, and the supernatant was discarded after centrifugation at 300 g. The antibodies were serially diluted with FACS buffer (Id.), the diluted antibodies were added to centrifuged cells and the cells were resuspended. The cells were incubated at 4° C. for 1 h. The incubated cells were centrifuged at 300 g for 5 min and washed twice with FACS buffer. 100 μL […] anti-Human IgG (H+L) Cross-Adsorbed Secondary Antibody-Alexa Fluor 488 (Sigma, A11013; 1:1000) secondary antibody was added, washed twice with FACS buffer after incubation at 4° C. for 1 h, resuspended with PBS, analyzed with FACS (BD FACS CantoTM II) instrument and curve fitted with GraphPad Prism6, and EC₅₀ values were calculated.

[6] = target: T1, human BDCA2; assay: FACS on CHOK1-hBDCA2 cells; EC50 table under the plot, unit from the x axis (nM)
Experimental: as §3

[7] = target: T1, human BDCA2; assay: FACS on CHOK1-hBDCA2 cells; EC50 table under the plot, unit from the x axis (nM) [continued) e.]
Experimental: as §1

[8] = target: T1, human BDCA2; assay: FACS on CHOK1-hBDCA2 cells; EC50 table under the plot, unit from the x axis (nM); remark: listed apart in the source
[9] = target: T1, human BDCA2; assay: as above; remark: listed apart in the source
Experimental: as §3

[10] = target: T1, human BDCA2; assay: FACS, CHOK1-humanBDCA2 cells; remark: listed apart in the source
Experimental: as §2

[11] = target: T2, Recombinant Human BDCA2 (human, UniProt Q8WTT0 45-213, limits assumed); assay: SPR (BIAcore), antibody captured by anti-human IgG (Fc), hBDCA2 as analyte, 1:1 model
T2 construct: also called hBDCA2 (SPR analyte); human BDCA2 antigen
T2 sequence (looked up): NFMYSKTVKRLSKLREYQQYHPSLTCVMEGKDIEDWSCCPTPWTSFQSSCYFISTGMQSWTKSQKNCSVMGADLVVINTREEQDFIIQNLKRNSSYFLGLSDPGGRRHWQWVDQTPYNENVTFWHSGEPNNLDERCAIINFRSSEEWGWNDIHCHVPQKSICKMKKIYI
Experimental: Then 1 M ethanolamine was injected at 10 μL/min flow rate for 420 seconds, and the excess active carboxyl groups on chip were blocked. The humanized antibodies were injected into a detection channel flow cell at flow rate of 10 μL/min for 60 s for capture after diluting to 1 μg/mL using running buffer. […] The sample hBDCA2 to be tested of each concentration gradient was injected into the detection channel at 30 μL/min flow rate, two samples at 0 concentration were used to remove background signal. The binding and dissociation times between antigen and antibody were 180 and 400 sec, respectively. An analysis of data was performed using Biacore Insight Evaluation Software (Version 2.0. 15.12933). A 1:1 binding model was selected for curve fitting and kinetic parameters were calculated after subtraction of signal of the reference channel (flow cell 1) and at 0 concentration.

[12] = target: T1, human BDCA2; assay: FACS on CHOK1-hBDCA2 cells; EC50 table under the plot, unit from the x axis (nM); remark: listed apart in the source
Experimental: as §1

[13] = target: T3, cynomolgus BDCA2 (cynomolgus monkey, UniProt A0A2K5UWP4 1-212); assay: FACS on 293F-cynoBDCA2 cells; EC50 table under the plot, unit from the x axis (nM) [continued) c.]
T3 construct: whole, on cells; also called Cyno BDCA2; cynoBDCA2
T3 sequence: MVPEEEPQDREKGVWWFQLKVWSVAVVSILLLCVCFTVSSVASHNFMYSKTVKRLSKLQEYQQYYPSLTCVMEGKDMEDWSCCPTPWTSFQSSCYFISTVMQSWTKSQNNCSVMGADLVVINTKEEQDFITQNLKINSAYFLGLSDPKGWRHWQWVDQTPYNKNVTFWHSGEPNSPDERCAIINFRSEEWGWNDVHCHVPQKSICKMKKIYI
Experimental: as §1

EC50 [1]: 2.48 nM | EC50 [2]: 1.3 nM | EC50 (nM), inhibition of CpG-A stimulated IFNα release from human PBMC [3]: 0.04 nM | EC50 [4]: 1.09 nM | EC50 [5]: 2 nM | EC50 [6]: 1.91 nM | EC50 [7]: 1.91 nM | EC50 [8]: 2.17 nM | EC50 [9]: 3.45 nM | EC50 [10]: 3.1 nM | Kd [11]: 1.07 nM | EC50 [12]: 2.17 nM
B1: BIIB059 (antibody, V domains shown)
VH: DVQLVESGGGLVKPGGSLRLSCAASGFTFSTYTMSWVRQAPGKGLEWVATISPGDSFGYYYPDSVQGRFTISRDNAKNSLYLQMNSLRAEDTAVYYCTRDIYYNYGAWFAYWGQGTLVTVSS
VL: DIQLTQSPSSLSASVGDRVTITCKASQSVDYDGDSYMNWYQQKPGKAPKLLIYAASTLESGVPSRFSGSGSGTDFTLTISSLQPEDFATYYCQQANEDPRTFGQGTKVEIKR

EC50 [9]: 1.9 nM
B2: mab001c (antibody, V domains shown)
VH: QIQLVQSGPELKKPGETVKISCKASGYTFTDFSMHWVKQAPGKGLKWMGWINTETGEPTYADDFKGRFAFSLETSASTAFLQINNLKNDDTTTYFCSRGGDGHPYWYFAVWGAGTTVTVSS
VL: DIVLTQSPASLAVSLGQRATISCRASQSVSTSSYSYMHWYQQKPGQPPKLLIKYASILESGVPARFSGSGSGTDFTLNIHPVEEEDTATYYCQHSWEIPFTFGSGTKLEIK

EC50 [1]: 1.33 nM | EC50 [13]: 1.78 nM
B3: mAb016 (antibody, V domains shown)
VH: QVQLKQSGPGLVQPSQSLSITCTVSGFSLTSYGVHWVRQSPGKGLEWLGVIWSGESTDYDAAFISRLSISKDNSKSQVFFRMNSLQADDSAIYYCARRRSHYYGYVMDYWGQGTSVTVSS
VL: DIVLTQSPASLAVSLGQRATISCKASQSVDYDGVGYLNWYQHKPGQPPKLLIYAASNLESGIPARFSGSGSGTDFTLNIHPVEEEDAATYYCQQSNEDPPTFGSGTKLEIK
notes: Mouse hybridoma antibody

Source: patent US20250346673A1 (DUALITY BIOLOGICS SUZHOU, published 2025)
